Key:
[1] = tested on: mCherry reporter in Primary T cells; test: GZV inducible systems driving mCherry reporter in Primary T cells; format: cell-based
Method: Primary T cells were co-transduced with synZiFTR 2.0 and a minimally expressed mCherry reporter. Upon addition of GZV, the synZiFTR construct activated mCherry expression, which was measured on a flow cytometer (see e.g., FIG. 10).

[2] = tested on: mCherry reporter in Primary T cells; test: 4OHT inducible systems driving mCherry reporter in Primary T cells; format: cell-based
From the text: Primary T cells were co-transduced with synZiFTR 2.0 and a minimally expressed mCherry reporter.

B1: NFZ: transcriptional activator, SEQ ID NO: 57, domains from NCOA3, FOXO3 and ZNF473; tested with TIMs on N terminus (protein, listed as Homo sapiens)
chain: EGQSDERALLDQLHTLLSNTDATGLEEIDRALGIPELVNQGQALEPKQGGGGSGHEKFPSDLDLDMFNGSLECDMESIIRSELMDADGLDFNFDSGGGGSGFVTLKDVGMDFTLGDWEQLGLEQGDTFWDTALDNCQDLFLLDPP
[1]
  activation potency of the transcriptional activator on fusing TIMs domains on the N terminus: enhanced activation potency
[2]
  activation potency of the transcriptional activator on fusing TIMs domains on the N terminus: enhanced activation potency

B2: 3Z: transcriptional activator, SEQ ID NO: 303; tested with TIMs on N terminus (protein)
chain: MAEEFVTLKDVGMDFTLGDWEQLGLEQGDTFWDTALDNCQDLFLLDPPRPNLTSHPDGSEDLEPLAGGSPEATSMAEEFVTLKDVGMDFTLGDWEQLGLEQGDTFWDTALDNCQDLFLLDPPRPNLTSHPDGSEDLEPLAGGSPEATSMAEEFVTLKDVGMDFTLGDWEQLGLEQGDTFWDTALDNCQDLFLLDPPRPNLTSHPDGSEDLEPLAGGSPEATS
[2]
  activation potency of the transcriptional activator on fusing TIMs domains on the N terminus: enhanced activation potency

Reference: US12709637B2, “Regulated synthetic gene activation systems” (TRUSTEES OF BOSTON UNIVERSITY, priority 2023, dated 2026)
